Results taken from paper PMC4557121 (2015).

B1: A2 [not stated] / purified TRB3 protein [not stated] (parent complex)
chain 1: GGWLTRLLQTK
chain 2: MRATPLAAPAGSLSRKKRLELDDNLDTERPVQKRARSGPQPRLPPCLLPLSPPTAPDRATAVATASRLGPYVLLEPEEGGRAYQALHCPTGTEYTCKVYPVQEALAVLEPYARLPPHKHVARPTEVLAGTQLLYAFFTRTHGDMHSLVRSRHRIPEPEAAVLFRQMATALAHCHQHGLVLRDLKLCRFVFADRERKKLVLENLEDSCVLTGPDDSLWDKHACPAYVGPEILSSRASYSGKAADVWSLGVALFTMLAGHYPFQDSEPVLLFGKIRRGAYALPAGLSAPARCLVRCLLRREPAERLTATGILLHPWLRQDPMPLAPTRSHLWEAAQVVPDGLGLDEAREEEGDREVVLYG

Variants of: B1
Assay: SPR; TRB3 immobilized on CM5 sensor chips

Row | Variant | Kd [nM]
1 | chain 1 K11A | 73.1
2 | chain 1 L4A | 4320
3 | chain 1 G2A | 402
4 | chain 1 G1A | 1640

Continued, values first:

Row | Kd [nM] | Variant
5 | 110 | chain 1 T5A
6 | 3590 | chain 1 W3A
7 | 11800 | chain 1 L7A
8 | 35600 | chain 1 Q9A
9 | 381 | chain 1 T10A
10 | 0.142 | chain 1 R6A
